Test results from US7041498 (SALK INSTITUTE FOR BIOLOGICAL STUDIES, dated 2006).

B1: VP16 transactivation domain linked to the LBD of VDR (VP-VDR92-427) (other)
chain: EFILTDEEVQRKREMILKRKEEEALKDSLRPKLSEEQQRIIAILLDAHHKTYDPTYSDFCQFRPPVRVNDGGGSHPSRPNSRHTPSFSGDSSSSCSDHCITSSDMMDSSSFSNLDLSEEDSDDPSVTLELSQLSMLPHLADLVSYSIQKVIGFAKMIPGFRDLTSEDQIVLLKSSAIEVIMLRSNESFTMDDMSWTCGNQDYKYRVSDVTKAGHSLELIEPLIKFQVGLKKLNLHEEEHVLLMAICIVSPDRPGVQDAALIEAIQDRLSNTLQTYIRCRHPPPGSHLLYAKMIQKLADLRSLNEEHSKQYRCLSFQPECSMKLTPLVLEVFGNEIS
notes: range 92-427
B2: VP16 transactivation domain linked to the LBD of mouse PPARα (VP-PPAR155-468) (other)
chain: YCRFHKCLSVGMSHNAIRFGRMPRSEKAKLKAEILTCEHDLKDSETADLKSLGKRIHEAYLKNFNMNKVKARVILAGKTSNNPPFVIHDMETLCMAEKTLVAKMVANGVEDKEAEVRFFHCCQCMSVETVTELTEFAKAIPGFANLDLNDQVTLLKYGVYEAIFTMLSSLMNKDGMLIAYGNGFITREFLKNLRKPFCDIMEPKFDFAMKFNALELDDSDISLFVAAIICCGDRPGLLNIGYIEKLQEGIVHVLKLHLQSNHPDDTFLFPKLLQKMVDLRQLVTEHAQLVQVIKKTESDAALHPLLQEIYRDMY
notes: range 155-468; Two-hybrid prey expressed in CV-1 cells
B3: VP16 transactivation domain linked to the LBD of RARα (VP-RAR156-462) (other)
chain: ESVRNDRNKKKKEVPKPECSESYTLTPEVGELIEKVRKAHQETFPALCQLGKYTTNNSSEQRVSLDIDLWDKFSELSTKCIIKTVEFAKQLPGFTTLTIADQITLLKAACLDILILRICTRYTPEQDTMTFSDGLTLNRTQMHNAGFGPLTDLVFAFANQLLPLEMDDAETGLLSAICLICGDRQDLEQPDRVDMLQEPLLEALKVYVRKRRPSRPHMFPKMLMKITDLRSISAKGAERVITLKMEIPGSMPPLIQEMLENSEGLDTLSGQPGGGGRDGGGLAPPPGSCSPSLSPSSNRSSPATHSP
notes: range 156-462

Biological target: T1, GAL4 linked to the FAR ligand binding domain (GAL4-FAR184-469) (yeast; rat, UniProt P04386 1-147)
T1 construct: range 1-147; Two-hybrid bait expressed in CV-1 cells from a CMV promoter vector; also called GAL4-FAR chimera; FAR LBD
Assay: mammalian two-hybrid in CV-1 cells, GAL4 UAS luciferase reporter

Binder | binding result
B1 | no binding
B2 | no binding
B3 | no binding
